Assay results taken from PMC2744565, “Human Telomerase Reverse Transcriptase (hTERT) Q169 Is Essential for Telomerase Function In Vitro and In Vivo”.

Key:
Conditions in all cases: protein: ivt; tags: N-terminal FLAG; label: 5'-biotin
[1] = target: T1, hTERT Q169N (Homo sapiens, UniProt O14746 1-1132, Q169N); experiment: pull-down; stronger than WT; 5'-biotin primers with RRL-made 35S-hTERT (no hTR), neutravidin bead pull-down; primer mix pre-incubated on ice 45-60 min; buffer, salt and pH not given (ref 28)
[2] = target: T2, hTERT Q169A (Homo sapiens, UniProt O14746 1-1132, Q169A); experiment: as above
[3] = target: T3, hTERT Q169D (Homo sapiens, UniProt O14746 1-1132, Q169D); experiment: as above
[4] = target: T1, hTERT Q169N; experiment: pull-down; 5'-biotin primers with RRL-made 35S-hTERT (no hTR), neutravidin bead pull-down; primer mix pre-incubated on ice 45-60 min; buffer, salt and pH not given (ref 28)
[5] = target: T2, hTERT Q169A; experiment: as above
[6] = target: hTERT WT (Homo sapiens, UniProt O14746 1-1132); experiment: as above
[7] = target: T3, hTERT Q169D; experiment: as above

T1 sequence (O14746 whole entry Q169N): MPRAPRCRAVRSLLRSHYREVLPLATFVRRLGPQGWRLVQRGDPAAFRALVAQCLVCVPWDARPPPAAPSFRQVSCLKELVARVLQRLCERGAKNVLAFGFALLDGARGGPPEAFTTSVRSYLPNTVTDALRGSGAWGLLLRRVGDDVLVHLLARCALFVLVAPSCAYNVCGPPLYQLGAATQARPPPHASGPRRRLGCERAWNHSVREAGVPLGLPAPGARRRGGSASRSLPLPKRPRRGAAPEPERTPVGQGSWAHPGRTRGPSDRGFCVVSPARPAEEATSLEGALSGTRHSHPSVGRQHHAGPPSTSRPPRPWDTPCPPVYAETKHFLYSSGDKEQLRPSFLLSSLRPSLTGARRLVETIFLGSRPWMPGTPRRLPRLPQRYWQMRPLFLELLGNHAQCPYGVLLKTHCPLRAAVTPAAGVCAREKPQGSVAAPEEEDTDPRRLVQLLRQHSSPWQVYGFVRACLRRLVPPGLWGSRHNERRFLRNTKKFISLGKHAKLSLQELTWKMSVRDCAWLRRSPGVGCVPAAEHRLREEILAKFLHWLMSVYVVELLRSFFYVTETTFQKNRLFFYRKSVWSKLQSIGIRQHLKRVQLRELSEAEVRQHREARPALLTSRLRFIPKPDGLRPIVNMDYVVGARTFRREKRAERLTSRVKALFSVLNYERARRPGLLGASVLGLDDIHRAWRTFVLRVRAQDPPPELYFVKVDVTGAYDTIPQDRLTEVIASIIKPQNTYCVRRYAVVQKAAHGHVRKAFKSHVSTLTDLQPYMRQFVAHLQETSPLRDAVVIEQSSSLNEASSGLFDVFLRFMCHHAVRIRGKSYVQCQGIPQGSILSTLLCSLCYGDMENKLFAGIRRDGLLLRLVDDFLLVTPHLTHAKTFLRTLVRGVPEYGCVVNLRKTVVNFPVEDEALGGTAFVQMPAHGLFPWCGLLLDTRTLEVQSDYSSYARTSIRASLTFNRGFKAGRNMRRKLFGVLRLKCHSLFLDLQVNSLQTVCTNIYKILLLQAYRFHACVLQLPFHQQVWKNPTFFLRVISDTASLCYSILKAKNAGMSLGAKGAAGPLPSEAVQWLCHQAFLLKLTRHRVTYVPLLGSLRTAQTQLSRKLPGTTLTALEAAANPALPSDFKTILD
T2 sequence (O14746 whole entry Q169A): as the sequence (O14746 whole entry Q169N) above, with N169A counted along it
T3 sequence (O14746 whole entry Q169D): as the sequence (O14746 whole entry Q169N) above, with N169D counted along it
hTERT WT, sequence (O14746 whole entry): as the sequence (O14746 whole entry Q169N) above, with N169Q counted along it

| Binder | binding result [1] | binding result [2] | binding result [3] | binding result [4] | binding result [5] | binding result [6] | binding result [7] |
| --- | --- | --- | --- | --- | --- | --- | --- |
| TTAGGGTTAGGG (ssDNA) [bio-TELO12] | binds | binds | binds |  |  |  |  |
| TTAGGG (ssDNA) [bio-TELO6] | binds | binds | binds |  |  |  |  |
| TTGGGGTTGGGGTTGGGG (ssDNA) [bio-Tetrahymena] |  |  |  | binds | binds | binds | binds |
| TTAGGGTTAGGGTTAGGGTTAGGG (ssDNA) [bio-TELO24] |  | binds |  |  |  |  |  |
